Results as given in the Human Domainome abundance scans (Beltran et al. 2025).
± gives the uncertainty stated by the source.

B1: POU domain, class 4, transcription factor 1, residues 266 to 347; numbered along this chain, Q01851 (parent)
chain: RELEAFAERFKQRRIKLGVTQADVGSALANLKIPGVGSLSQSTICRFESLTLSHNNMIALKPILQAWLEEAEGAQREKMNKP

Variants of: B1
Experiment: abundance fitness (aPCA) (normalised: wild type 0, dead -1); higher = more abundant; growth selection in yeast, the domain comes from the species named
Conditions: Homo sapiens

| Variant | abundance fitness |
| --- | --- |
| RELEAFAERFKQRRIKLGVTQADVGSALANLKIPGVGSLSQSTICRFESLTLSHGNMIALKPILQAWLEEAEGAQREKMNKP [N55G] | 0.044 ± 0.041 |
| RELEAFAERFKQRRIKLGVTQADVGSALANLKIPGVGSLSQSTICRFESLTLSHHNMIALKPILQAWLEEAEGAQREKMNKP [N55H] | -0.06 ± 0.096 |
| RELEAFAERFKQRRIKLGVTQADVGSALANLKIPGVGSLSQSTICRFESLTLSHINMIALKPILQAWLEEAEGAQREKMNKP [N55I] | -0.093 ± 0.14 |
| RELEAFAERFKQRRIKLGVTQADVGSALANLKIPGVGSLSQSTICRFESLTLSHKNMIALKPILQAWLEEAEGAQREKMNKP [N55K] | -0.038 ± 0.074 |
| RELEAFAERFKQRRIKLGVTQADVGSALANLKIPGVGSLSQSTICRFESLTLSHLNMIALKPILQAWLEEAEGAQREKMNKP [N55L] | -0.016 ± 0.052 |
| RELEAFAERFKQRRIKLGVTQADVGSALANLKIPGVGSLSQSTICRFESLTLSHPNMIALKPILQAWLEEAEGAQREKMNKP [N55P] | 0.104 ± 0.074 |
| RELEAFAERFKQRRIKLGVTQADVGSALANLKIPGVGSLSQSTICRFESLTLSHRNMIALKPILQAWLEEAEGAQREKMNKP [N55R] | 0.045 ± 0.039 |
| RELEAFAERFKQRRIKLGVTQADVGSALANLKIPGVGSLSQSTICRFESLTLSHTNMIALKPILQAWLEEAEGAQREKMNKP [N55T] | 0.034 ± 0.067 |
| RELEAFAERFKQRRIKLGVTQADVGSALANLKIPGVGSLSQSTICRFESLTLSHVNMIALKPILQAWLEEAEGAQREKMNKP [N55V] | -0.051 ± 0.043 |
| RELEAFAERFKQRRIKLGVTQADVGSALANLKIPGVGSLSQSTICRFESLTLSHWNMIALKPILQAWLEEAEGAQREKMNKP [N55W] | -0.023 ± 0.062 |
| RELEAFAERFKQRRIKLGVTQADVGSALANLKIPGVGSLSQSTICRFESLTLSHNAMIALKPILQAWLEEAEGAQREKMNKP [N56A] | 0.055 ± 0.046 |
| RELEAFAERFKQRRIKLGVTQADVGSALANLKIPGVGSLSQSTICRFESLTLSHNCMIALKPILQAWLEEAEGAQREKMNKP [N56C] | 0.145 ± 0.092 |
| RELEAFAERFKQRRIKLGVTQADVGSALANLKIPGVGSLSQSTICRFESLTLSHNDMIALKPILQAWLEEAEGAQREKMNKP [N56D] | -0.018 ± 0.075 |
| RELEAFAERFKQRRIKLGVTQADVGSALANLKIPGVGSLSQSTICRFESLTLSHNEMIALKPILQAWLEEAEGAQREKMNKP [N56E] | 0.032 ± 0.044 |
| RELEAFAERFKQRRIKLGVTQADVGSALANLKIPGVGSLSQSTICRFESLTLSHNFMIALKPILQAWLEEAEGAQREKMNKP [N56F] | -0.136 ± 0.14 |
| RELEAFAERFKQRRIKLGVTQADVGSALANLKIPGVGSLSQSTICRFESLTLSHNGMIALKPILQAWLEEAEGAQREKMNKP [N56G] | -0.023 ± 0.033 |
| RELEAFAERFKQRRIKLGVTQADVGSALANLKIPGVGSLSQSTICRFESLTLSHNHMIALKPILQAWLEEAEGAQREKMNKP [N56H] | 0.004 ± 0.091 |

| Variant | abundance fitness |
| --- | --- |
| RELEAFAERFKQRRIKLGVTQADVGSALANLKIPGVGSLSQSTICRFESLTLSHNIMIALKPILQAWLEEAEGAQREKMNKP [N56I] | -0.049 ± 0.098 |
| RELEAFAERFKQRRIKLGVTQADVGSALANLKIPGVGSLSQSTICRFESLTLSHNKMIALKPILQAWLEEAEGAQREKMNKP [N56K] | 0.015 ± 0.069 |
| RELEAFAERFKQRRIKLGVTQADVGSALANLKIPGVGSLSQSTICRFESLTLSHNLMIALKPILQAWLEEAEGAQREKMNKP [N56L] | 0.058 ± 0.042 |
| RELEAFAERFKQRRIKLGVTQADVGSALANLKIPGVGSLSQSTICRFESLTLSHNMMIALKPILQAWLEEAEGAQREKMNKP [N56M] | 0.078 ± 0.075 |
| RELEAFAERFKQRRIKLGVTQADVGSALANLKIPGVGSLSQSTICRFESLTLSHNPMIALKPILQAWLEEAEGAQREKMNKP [N56P] | -0.301 ± 0.094 |
| RELEAFAERFKQRRIKLGVTQADVGSALANLKIPGVGSLSQSTICRFESLTLSHNQMIALKPILQAWLEEAEGAQREKMNKP [N56Q] | 0.083 ± 0.063 |
| RELEAFAERFKQRRIKLGVTQADVGSALANLKIPGVGSLSQSTICRFESLTLSHNSMIALKPILQAWLEEAEGAQREKMNKP [N56S] | 0.046 ± 0.052 |
| RELEAFAERFKQRRIKLGVTQADVGSALANLKIPGVGSLSQSTICRFESLTLSHNTMIALKPILQAWLEEAEGAQREKMNKP [N56T] | -0.029 ± 0.081 |
| RELEAFAERFKQRRIKLGVTQADVGSALANLKIPGVGSLSQSTICRFESLTLSHNVMIALKPILQAWLEEAEGAQREKMNKP [N56V] | 0.066 ± 0.04 |
| RELEAFAERFKQRRIKLGVTQADVGSALANLKIPGVGSLSQSTICRFESLTLSHNWMIALKPILQAWLEEAEGAQREKMNKP [N56W] | -0.062 ± 0.049 |
| RELEAFAERFKQRRIKLGVTQADVGSALANLKIPGVGSLSQSTICRFESLTLSHNYMIALKPILQAWLEEAEGAQREKMNKP [N56Y] | 0.23 ± 0.24 |
| RELEAFAERFKQRRIKLGVTQADVGSALANLKIPGVGSLSQSTICRFESLTLSHNNAIALKPILQAWLEEAEGAQREKMNKP [M57A] | -0.132 ± 0.047 |
| RELEAFAERFKQRRIKLGVTQADVGSALANLKIPGVGSLSQSTICRFESLTLSHNNCIALKPILQAWLEEAEGAQREKMNKP [M57C] | -0.268 ± 0.11 |
| RELEAFAERFKQRRIKLGVTQADVGSALANLKIPGVGSLSQSTICRFESLTLSHNNDIALKPILQAWLEEAEGAQREKMNKP [M57D] | -0.935 ± 0.31 |
| RELEAFAERFKQRRIKLGVTQADVGSALANLKIPGVGSLSQSTICRFESLTLSHNNEIALKPILQAWLEEAEGAQREKMNKP [M57E] | -0.706 ± 0.085 |
| RELEAFAERFKQRRIKLGVTQADVGSALANLKIPGVGSLSQSTICRFESLTLSHNNFIALKPILQAWLEEAEGAQREKMNKP [M57F] | -0.309 ± 0.16 |
| RELEAFAERFKQRRIKLGVTQADVGSALANLKIPGVGSLSQSTICRFESLTLSHNNGIALKPILQAWLEEAEGAQREKMNKP [M57G] | -0.449 ± 0.04 |
